# Legend:
# [1] = molecular target: Fc-tagged SARS-CoV-2 receptor-binding domain (RBD), wild type (SARS-CoV-2) (UniProt P0DTC2); experiment: BLI; Fc-tagged RBD (20 ug/ml) loaded on anti-hIgG Fc Capture (AHC) biosensors, Fab in solution at four to five concentrations; Octet Red96e, room temperature, 1x kinetics buffer (1x PBS pH 7.4, 0.01% w/v BSA, 0.002% v/v Tween 20); 1:1 binding model
# [2] = molecular target: Fc-tagged SARS-CoV-2 spike receptor-binding domain (RBD) (SARS-CoV-2) (UniProt P0DTC2); experiment: BLI; Fc-tagged RBD (20 ug/ml) loaded on anti-hIgG Fc Capture (AHC) biosensors, Fab in solution; room temperature; 1x PBS pH 7.4, 0.01% BSA, 0.002% Tween 20; 1:1 binding model
Substance,Kd [1],Kd [2]
COVD21-C8 F58Y Fab,> 1 µM,–
"COVD21-C8 Fab, Y58 variant (heavy chain F58Y)",–,2 µM

# From publication PMC8217500
